Results reported in the supplement of paper PMC11246515.
± gives the standard deviation of the averaged measurements.

Test: total protein half-life in vivo (active degradation + dilution); higher = more stable protein
[1] = E. coli NCM3722 delta-clpP delta-lon delta-hslV, growth: N-lim chemostat, doubling time 6 h
[2] = E. coli NCM3722 delta-hslV, growth: N-lim chemostat, doubling time 6 h
[3] = E. coli NCM3722 delta-lon, growth: N-lim chemostat, doubling time 6 h
[4] = E. coli NCM3722 delta-smpB, growth: N-lim chemostat, doubling time 6 h
[5] = wild type E. coli NCM3722, growth: C-lim chemostat, doubling time 3 h
[6] = wild type E. coli NCM3722, growth: C-lim chemostat, doubling time 12 h
[7] = wild type E. coli NCM3722, growth: N-lim chemostat, doubling time 6 h
[8] = wild type E. coli NCM3722, growth: N-lim chemostat, doubling time 12 h
[9] = wild type E. coli NCM3722, growth: P-lim chemostat, doubling time 6 h
[10] = E. coli NCM3722 delta-clpP, growth: N-lim chemostat, doubling time 6 h
[11] = wild type E. coli NCM3722, growth: C-lim chemostat, doubling time 6 h
[12] = wild type E. coli NCM3722, growth: P-lim chemostat, doubling time 12 h

MSLPHCPKCNSEYTYEDNGMYICPECAYEWNDAEPAQESDELIVKDANGNLLADGDSVTIIKDLKVKGSSSMLKIGTKVKNIRLVEGDHNIDCKIDGFGPMKLKSEFVKKN [P0AFJ1]
total protein half-life in vivo [1]: 5.52 ± 0.25 h | total protein half-life in vivo [2]: 6.14 ± 1.1 h | total protein half-life in vivo [3]: 5.91 ± 1 h | total protein half-life in vivo [4]: 4.71 ± 0.15 h | total protein half-life in vivo [5]: 2.53 ± 0.093 h | total protein half-life in vivo [6]: 10.2 ± 0.45 h | total protein half-life in vivo [7]: 4.88 h | total protein half-life in vivo [8]: 10.2 ± 0.21 h | total protein half-life in vivo [9]: 5.38 ± 0.21 h

MSLPMLQVALDNQTMDSAYETTRLIAEEVDIIEVGTILCVGEGVRAVRDLKALYPHKIVLADAKIADAGKILSRMCFEANADWVTVICCADINTAKGALDVAKEFNGDVQIELTGYWTWEQAQQWRDAGIGQVVYHRSRDAQAAGVAWGEADITAIKRLSDMGFKVTVTGGLALEDLPLFKGIPIHVFIAGRSIRDAASPVEAARQFKRSIAELWG
total protein half-life in vivo [1]: 5.41 h | total protein half-life in vivo [10]: 2.49 h | total protein half-life in vivo [2]: 2.68 h | total protein half-life in vivo [4]: 4.15 ± 2.2 h | total protein half-life in vivo [5]: 2.29 ± 0.076 h | total protein half-life in vivo [11]: 5.11 ± 1.5 h | total protein half-life in vivo [6]: 5.84 ± 1.4 h | total protein half-life in vivo [9]: 2.69 h | total protein half-life in vivo [12]: 3.39 h

MSLSLWQQCLARLQDELPATEFSMWIRPLQAELSDNTLALYAPNRFVLDWVRDKYLNNINGLLTSFCGADAPQLRFEVGTKPVTQTPQAAVTSNVAAPAQVAQTQPQRAAPSTRSGWDNVPAPAEPTYRSNVNVKHTFDNFVEGKSNQLARAAARQVADNPGGAYNPLFLYGGTGLGKTHLLHAVGNGIMARKPNAKVVYMHSERFVQDMVKALQNNAIEEFKRYYRSVDALLIDDIQFFANKERSQEEFFHTFNALLEGNQQIILTSDRYPKEINGVEDRLKSRFGWGLTVAIEPPELETRVAILMKKADENDIRLPGEVAFFIAKRLRSNVRELEGALNRVIANANFTGRAITIDFVREALRDLLALQEKLVTIDNIQKTVAEYYKIKVADLLSKRRSRSVARPRQMAMALAKELTNHSLPEIGDAFGGRDHTTVLHACRKIEQLREESHDIKEDFSNLIRTLSS
total protein half-life in vivo [1]: 5.49 ± 0.27 h | total protein half-life in vivo [10]: 4.24 ± 0.24 h | total protein half-life in vivo [2]: 2.83 ± 0.047 h | total protein half-life in vivo [3]: 3.85 ± 0.16 h | total protein half-life in vivo [4]: 2.8675 ± 0.00078 h | total protein half-life in vivo [5]: 2.183 ± 0.021 h | total protein half-life in vivo [11]: 3.897 ± 0.019 h | total protein half-life in vivo [6]: 5.25 ± 0.15 h | total protein half-life in vivo [7]: 2.94 ± 0.26 h | total protein half-life in vivo [8]: 3.79 ± 0.058 h | total protein half-life in vivo [9]: 3.61 ± 0.12 h | total protein half-life in vivo [12]: 6.1 ± 0.38 h

MSLSRTQIVNWLTRCGDIFSTESEYLTGLDREIGDADHGLNMNRGFSKVVEKLPAIADKDIGFILKNTGMTLLSSVGGASGPLFGTFFIRAAQATQARQSLTLEELYQMFRDGADGVISRGKAEPGDKTMCDVWVPVVESLRQSSEQNLSVPVALEAASSIAESAAQSTITMQARKGRASYLGERSIGHQDPGATSVMFMMQMLALAAKE
total protein half-life in vivo [1]: 4.62 ± 0.54 h | total protein half-life in vivo [10]: 4.25 ± 0.72 h | total protein half-life in vivo [2]: 4.36 ± 0.067 h | total protein half-life in vivo [3]: 4.75 ± 0.52 h | total protein half-life in vivo [4]: 4.23 ± 0.14 h | total protein half-life in vivo [5]: 2.93 ± 0.12 h | total protein half-life in vivo [11]: 5.43 ± 0.13 h | total protein half-life in vivo [6]: 9.74 ± 0.25 h | total protein half-life in vivo [7]: 4.432 ± 0.04 h | total protein half-life in vivo [8]: 7.23 ± 0.11 h | total protein half-life in vivo [9]: 4.75 ± 1.6 h | total protein half-life in vivo [12]: 11.8 ± 0.41 h

MSLTRLLIRDFRNIETADLALSPGFNFLVGANGSGKTSVLEAIYTLGHGRAFRSLQIGRVIRHEQEAFVLHGRLQGEERETAIGLTKDKQGDSKVRIDGTDGHKVAELAHLMPMQLITPEGFTLLNGGPKYRRAFLDWGCFHNEPGFFTAWSNLKRLLKQRNAALRQVTRYEQLRPWDKELIPLAEQISTWRAEYSAGIAADMADTCKQFLPEFSLTFSFQRGWEKETEYAEVLERNFERDRQLTYTAHGPHKADLRIRADGAPVEDTLSRGQLKLLMCALRLAQGEFLTRESGRRCLYLIDDFASELDDERRGLLASRLKATQSQVFVSAISAEHVIDMSDENSKMFTVEKGKITD [P0A7H0]
total protein half-life in vivo [1]: 5.54 ± 0.29 h | total protein half-life in vivo [10]: 4.43 ± 0.14 h | total protein half-life in vivo [2]: 3.95 ± 0.053 h | total protein half-life in vivo [3]: 4.92 ± 0.21 h | total protein half-life in vivo [4]: 3.93 ± 0.32 h | total protein half-life in vivo [11]: 5.07 ± 0.41 h | total protein half-life in vivo [6]: 9.88 ± 0.3 h | total protein half-life in vivo [7]: 4.32 ± 0.1 h | total protein half-life in vivo [8]: 8.32 ± 0.12 h | total protein half-life in vivo [9]: 4.06 ± 1 h | total protein half-life in vivo [12]: 7.31 ± 0.63 h

MSLVCSVIFIHHAFNANILDKDYAFSDGEILMVDNAVRTHFEPYERHFKEIGFTENTIKKYLQCTNIQTVTVPVPAKFLRASNVPTGLLNEMIAYLNSEERNHHNFSELLLFSCLSIFAACKGFITLLTNGVLSVSGKVRNIVNMKPAHPWKLKDICDCLYISESLLKKKLKQEQTTFSQILLDARMQHAKNLIRVEGSVNKIAEQCGYASTSYFIYAFRKHFGNSPKRVSKEYRCQSHTGMNTGNTMNALAI
total protein half-life in vivo [1]: 4.92 h

MSLVTDLPAIFDQFSEARQTGFLTVMDLKERGIPLVGTYCTFMPQEIPMAAGAVVVSLCSTSDETIEEAEKDLPRNLCPLIKSSYGFGKTDKCPYFYFSDLVVGETTCDGKKKMYEYMAEFKPVHVMQLPNSVKDDASRALWKAEMLRLQKTVEERFGHEISEDALRDAIALKNRERRALANFYHLGQLNPPALSGSDILKVVYGATFRFDKEALINELDAMTARVRQQWEEGQRLDPRPRILITGCPIGGAAEKVVRAIEENGGWVVGYENCTGAKATEQCVAETGDVYDALADKYLAIGCSCVSPNDQRLKMLSQMVEEYQVDGVVDVILQACHTYAVESLAIKRHVRQQHNIPYIAIETDYSTSDVGQLSTRVAAFIEML
total protein half-life in vivo [5]: 1.59 ± 0.089 h | total protein half-life in vivo [11]: 1.98 h | total protein half-life in vivo [6]: 2.51 ± 0.083 h
